Target: Glut1 (UniProt P11166)
Test: Flag IP, HA-TXNIP blot
Conditions: reference: HA-TXNIP wild type, 2DG-treated cells; sites S308

“TXNIP (from UniProt Q9H3M7) HA-TXNIP S308A, 2DG-treated cells” was tested, and the “binding against the reference” value was “stronger”.

— article PMC3615143
